Our source for the Radioligand displacement (IC50 or Ki not stated) values is patent US20260103529A1, “Amino Acid Sequences Directed Against the Melanocortin 4 Receptor and Polypeptides Comprising the Same for the Treatment of MC4R-Related Diseases and Disorders” (Confo Therapeutics N.V., priority 2022, published 2026).

This experiment addresses MC4R of the CHO stable cell line used for radioligand displacement (Table 1A) (UniProt P32245). Description: radioligand displacement, CHO stable cell line, n = 2; radioligand not named.

B1: pN0162 (VHH)
VHH: QVQLVESGGGLVQPGGSLRLSCAASGSAFSLNVMGWYRQTPGNQRALVAEITKDGSTNYADSAKGRFTISRDNAKNTVHLQMDSLKPEDTAVYYCKARTGRIVRPLDYWGQGTQVTVSS
B1 yielded a Radioligand displacement (IC50 or Ki not stated) of 6.48 nM.
